# According to patent US20240026407A1, “MODIFICATION OF SAPONINS” (GLAXOSMITHKLINE BIOLOGICALS SA, priority 2020, published 2024):
# B1: 312 (protein, listed as Thermotoga neapolitana)
# chain: MEKVNEILSQLTLEEKVKLVVGVGLPGLFGNPHSRVAGAAGETHPVPRVGLPAFVLADGPAGLRINPTRENDENTYYTTAFPVEIMLASTWNRELLEEVGKAMGEEVREYGVDVLLAPAMNIHRNPLCGRNFEYYSEDPVLSGEMASSFVKGVQSQGVGACIKHFVANNQETNRMVVDTIVSERALREIYLRGFEIAVKKSKPWSVMSAYNKLNGKYCSQNEWLLKKVLREEWGFEGFVMSDWYAGDNPVEQLKAGNDLIMPGKAYQVNTERRDEIEEIMEALKEGKLSEEVLDECVRNILKVLVNAPSFKNYRYSNKPDLEKHAKVAYEAGAEGVVLLRNEEALPLSENSKIALFGTGQIETIKGGTGSGDTHPRYAISILEGIKERGLNFDEELAKTYEDYIKKMRETEEYKPRRDSWGTIIKPKLPENFLSEKEIHKLAKKNDVAVIVISRISGEGYDRKPVKGDFYLSDDETDLIKTVSREFHEQGKKVIVLLNIGSPVEVVSWRDLVDGILLVWQAGQETGRIVADVLTGRINPSGKLPTTFPRDYSDVPSWTFPGEPKDNPQKVVYEEDIYVGYRYYDTFGVEPAYEFGYGLSYTTFEYSDLNVSFDGETLRVQYRIENTGGRAGKEVSQVYIKAPKGKIDKPFQELKAFHKTRLLNPGESEEVVLEIPVRDLASFNGEEWVVEAGEYEVRVGASSRNIKLKGTFSVGEERRFKP
# B2: 35 (protein, listed as Verrucomicrobia bacterium)
# chain: MSEPDVENRINGLLKQMSLEEKTSLLHGNSKFNTAGIKRLGIPRLHLSDGPHGVRRETEEHSWGPVGWEDDYVTYLPTGSALASTWNPALGRLFGETLGAEARHRNKDVILGPGINIVRTPVCGRNFEYFGEDPYHVGKMAAEVVRGIQNNDVAACVKHYALNNQEWNRGWVNAIVDERTLREIYLPAFEETVRAGALTFMGAYNRFRGQWCCENKYLVNDILKGEWGFDGVYLSDWGGVHSTRDSALNGLDLEMGTSDNYDEFFFARPLREAVEGGEIPESVVDDKVRRILRVMARIGALDPATRKTGARNTAAHQKAVRAIADEAMVLLKNDGVLPLDIHKTLKLAVIGENADKKHADQGGSSAIRALYEITPLEGLKRRGGDMVKITYVQGYRDTGDAAAFEPIGEPYVQTVDPKAGVRCWKVEYFNNRDLHMPPVTVRYEKSVDFDWQERSPAPNVSEDNFSARMTAEIKPTASGTHHIGLTSDDGSRLKIDGKVVIDHWGDHGEEQKDARVELVAGQTYRFEVEYYDSGKGAMLKLGWVTPDSSAADPEVVFAAALEAAREADAVLVFAGQNHRYDTEGVDRRDIRLHGRQNDLIEAVAAANPRTAVFIISGSAVEMPWIDKVPCVVQAWYAGMEVGNAAAGIVFGDVNPSGKLPITFPKRLEDVPAHSIGQYNDQDCEYREGLLVGYRHFDTRNAEPLFPFGHGLSYTKFTYGNLKVDPATLEVRVSVKNTGARKGKEVVQLYVHDVQSRLPRPVKELKGFEKVELAPGETKEVAFRLDERALAFYDADANRWVVEPGDFDILVGSSSRDIRLKGRLAYAGRKKGPL
# Assays:
# [1] = Experiment 4-2: screening of glucosidases for deglycosylation with purified QS-18 (1 mg/ml) at pH 6 and 30 deg C; type: biochemical, Quillaja saponaria; conditions: pH 6, 30 degC, 18 hrs, clarified lysate, LCMS/MS
# Method: Lysates were prepared in an identical manner to Experiment 4-1 above, except the lysis buffer was prepared in 100 mM potassium phosphate buffer pH 6. QS-18 solution was prepared by dissolving QS-18 in 100 mM potassium phosphate buffer pH 6 (2 mg/mL).
# 12 uL clarified lysate was transferred into fresh 96 well PCR plates. 12 uL QS-18 solution was added (1 mg/ml final concentration), plates sealed and incubated overnight (30° C.) for 18 hrs. After quenching with 25 uL MeCN and shaking for 10 mins (RT), samples were analysed using the LC-MS/MS protocol described in Experiment 4-1 and enzyme activity determined in an analogous manner.
# [2] = Experiment 4-1: screening of glucosidases for deglycosylation with purified QS-18 (0.04 mg/ml) at pH 7.5 and room temperature; type: biochemical, Quillaja saponaria; conditions: pH 7.5, room temperature, 20 h, clarified E. coli lysate, QS-18 2150 to QS-21 1988 by LCMS/MS
# Method: Nucleotide sequences were sub-cloned into pET24b+ for expression. 10 uL of E. coli cells (One Shot® BL21(DE3) chemically competent E. coli) were transferred to each well of a 96 well PCR plate (prechilled on ice). 10 uL autoclaved water was added to the DNA, resuspended by pipetting, and 1 uL of plasmid DNA (15-30 ng) was transferred to the competent cells. Immediately after addition, the resulting mixture was mixed by pipetting. Cells were heat shocked by placing the plate in a thermal cycler at 42° C. for 30 seconds then transferred directly to an ice bath for 2 min. 100 uL sterile Lysogeny Broth (LB) medium was added to each well containing transformed cells. The content of each plate was transferred into a 96-deep well plate pre-aliquoted with 400 uL LB and the plate was incubated at 37° C. with shaking and 85% humidity for 1 hour. After outgrowth, 500 uL of sterile LB containing 100 ug/mL kanamycin was added to the plates containing cells and plates incubated at 37° C. with shaking overnight (18 hours) with humidity control (85%).
# 1000 mLs of Overnight Express Media was supplemented with 1 mL kanamycin 50 mg/mL and 20 mL of 50% v/v glycerol added (50 ug/mL kanamycin final and 1% glycerol). 96-Well Assay Block 2 mL plates were aliquoted with 380 uL of media per well. Pre-inoculum (20 uL) from transformation plates was added. The plates were sealed appropriately and incubated at 37° C. at 300 with shaking for 2 h. After 2 h the temperature was lowered to 20° C. and incubation continued for 20 h.
# The liquid cultures were centrifuged for 10 minutes at 4° C. The supernatant was discarded, plates blotted on an absorbent material to remove residue and the plates frozen at −80° C.
# Lysis buffer was prepared according to the following protocol: • 1. Polymyxin B sulphate (0.5 mg/mL) was suspended in 100 mM potassium phosphate pH 7.5 • 2. The mixture was sonicated until polymyxin B sulphate had dissolved • 3. Lysozyme (1 mg/mL) and benzonase (0.1 uL/mL lysis buffer) were added
# 2 copies of each cell pellet plate were removed from −80 degC freezer and allowed to thaw. 200 uL of lysis buffer was added to each well of one copy of the cell pellet plates. Plates were shaken at room temperature for 10 mins. 190 uL of cell pellet/lysis buffer was transferred to a corresponding fresh cell pellet plate. These plates were incubated at room temperature with shaking for 2 hours. Lysate was clarified by centrifugation (10 min, 4 degC).
# QS-18 was obtained by analogous methods to Example 3, collecting a QS-18 containing phenyl fraction following phenyl treatment (presence of m/z corresponding to key components was confirmed by MS and the phenyl fraction then used without further treatment). QS-18 solution was prepared by diluting aqueous QS-18 (ca 1 mg/mL) with 100 mM potassium phosphate pH 7.5 to 0.2 mg/ml. 40 uL clarified lysate was transferred into fresh 96 well PCR plates. 10 uL QS-18 solution added to each well of lysate to a final concentration of 0.04 mg/ml. Incubated at room temperature with shaking for 20 h. Quenched with 50 uL MeCN and shaken at room temperature for 10 mins. Samples were analysed by LC-MS/MS using a Waters Acquity H class coupled to a Waters Xevo Tandem Quadrupole (TQD) Mass Spectrometer.
# Enzyme activity was calculated as: […]
# Candidate enzymes with % conversion >0.72%, i.e. >3 S.D. above negative control, were considered to be positive hits and are listed below in Table 7. Sample results are shown in FIG. 10 for a QS-21 standard, FIG. 11 for negative control and FIG. 12 for treatment with the glucosidase of SEQ ID No. 262.
Molecule,Expt 4-2 % conv [1],Expt 4-1 % conv [2]
B1,0.4%,1.6%
B2,0.4%,1.2%
